Values of other authors as cited in article PMC4871753.

Target: RXFP1 (Homo sapiens) (UniProt Q9HBX9)
Sequence of UniProt Q9HBX9 (Q9HBX9 whole entry): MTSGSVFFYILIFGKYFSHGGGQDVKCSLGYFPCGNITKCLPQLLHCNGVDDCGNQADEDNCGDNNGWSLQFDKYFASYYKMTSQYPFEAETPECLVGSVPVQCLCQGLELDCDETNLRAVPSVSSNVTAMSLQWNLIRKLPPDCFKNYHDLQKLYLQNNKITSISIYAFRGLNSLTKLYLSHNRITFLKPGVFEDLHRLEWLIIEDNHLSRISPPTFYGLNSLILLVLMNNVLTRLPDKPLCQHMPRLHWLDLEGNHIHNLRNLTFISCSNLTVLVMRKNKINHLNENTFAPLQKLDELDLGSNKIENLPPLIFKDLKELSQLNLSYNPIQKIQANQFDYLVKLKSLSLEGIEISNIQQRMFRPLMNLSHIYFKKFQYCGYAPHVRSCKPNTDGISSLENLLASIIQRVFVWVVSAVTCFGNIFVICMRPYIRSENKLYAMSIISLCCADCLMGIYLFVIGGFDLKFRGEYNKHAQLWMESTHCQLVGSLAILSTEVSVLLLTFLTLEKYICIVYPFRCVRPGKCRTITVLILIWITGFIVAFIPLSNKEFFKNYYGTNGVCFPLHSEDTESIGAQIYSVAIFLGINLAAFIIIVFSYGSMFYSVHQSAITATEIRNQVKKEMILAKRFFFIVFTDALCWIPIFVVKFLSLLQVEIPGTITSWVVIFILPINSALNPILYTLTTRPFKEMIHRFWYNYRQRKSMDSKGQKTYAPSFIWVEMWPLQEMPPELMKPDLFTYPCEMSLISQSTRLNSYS

Kd: 1.11 nM
Substance: NLuc-conjugated relaxin (from UniProt P04090)
